This passage reports Km, kcat and kcat/Km results from PMC4575908.

This data set relates to O=C(O)[C@H]1O[C@@H](Oc2ccc([N+](=O)[O-])cc2)[C@H](O)[C@@H](O)[C@@H]1O. Description: purified protein, by the assay type. To be noted: 37.0 °C.

For BfGUS (Bacteroides fragilis NCTC 9343), the Km (usually the concentration of substrate that gives half-maximal velocity) turned out to be 1900 ± 300 µM; the kcat (in general, the number of substrate molecules converted per active site and unit of time at saturation) was determined as 18 ± 1 s⁻¹; the kcat/Km (as a rule, the second-order rate constant that governs catalysis at low substrate concentration) amounted to 9500 M⁻¹ s⁻¹.
As for CpGUS (Clostridium perfringens str. 13), the Km is 1100 ± 200 µM, the kcat worked out at 2.6 ± 0.6 s⁻¹ and the kcat/Km stood at 2400 M⁻¹ s⁻¹.
